From PMC7984168, “Heat Shock Protein HSP24 Is Involved in the BABA-Induced Resistance to Fungal Pathogen in Postharvest Grapes Underlying an NPR1-Dependent Manner” come the findings set out here.

The target of the data set is VvHSP24 (class B HSP/HSF, AtHSFB1 ortholog) (Vitis vinifera, UniProt A0ACM8QKQ1 1-286). The data set is described as follows: EMSA; LightShift chemiluminescent EMSA kit (Pierce); buffer, salt, pH and temperature not stated; 200-fold mutant competitor. The conditions noted are these: protein: recombinant; tags: His (pCzn1); label: 5' biotin. In general terms: A gel shift assay detects complexes by their altered migration in electrophoresis.
Sequence of VvHSP24 (class B HSP/HSF, AtHSFB1 ortholog) (A0ACM8QKQ1 entry or part of it): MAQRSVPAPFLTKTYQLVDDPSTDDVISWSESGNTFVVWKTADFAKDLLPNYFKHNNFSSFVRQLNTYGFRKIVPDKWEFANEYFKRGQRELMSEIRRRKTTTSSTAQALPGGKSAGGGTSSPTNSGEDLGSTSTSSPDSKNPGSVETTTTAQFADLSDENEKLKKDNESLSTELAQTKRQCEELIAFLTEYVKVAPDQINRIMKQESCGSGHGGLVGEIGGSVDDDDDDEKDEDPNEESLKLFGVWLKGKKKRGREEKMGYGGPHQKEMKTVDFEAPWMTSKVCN

B1: PR2 promoter HSE probe (dsDNA)
DNA 1: CATCTCAATATCAATATTTAAGAACTTTCTAATAAAATCATCCTTATCCGG
DNA 2: CCGGATAAGGATGATTTTATTAGAAAGTTCTTAAATATTGATATTGAGATG
In the case of B1, the binding result is “no binding”.

B2: PR1 promoter HSE probe (dsDNA)
DNA 1: GGCCCGCATGAGTTACAACAAGAAGAAATTTCAAATATTGCTCTCCGTGG
DNA 2: CCACGGAGAGCAATATTTGAAATTTCTTCTTGTTGTAACTCATGCGGGCC
As for B2, the binding result is reported as “no binding”.

B3: PR5 promoter HSE probe (dsDNA)
DNA 1: GGAACTGATTCCCTAAAACAGAAAAGAATGTATGAACCTTCCTAAAATAC
DNA 2: GTATTTTAGGAAGGTTCATACATTCTTTTCTGTTTTAGGGAATCAGTTCC
With B3, the binding result was “no binding”.
